Reference: US20220411529A1 (Genmab, published 2022)
Residue numbers refer to the chain shown, from its start. Names and notes keep the numbering of the source. Values belong to the binder of their own block, whether it stands above or below them.

Target: FcγRIIIa (V158 high affinity allotype) (UniProt P08637 17-254, limits assumed)
Assay: cell-based or functional assay

Sequence of FcγRIIIa (V158 high affinity allotype) (P08637 17-254 F176V limits assumed): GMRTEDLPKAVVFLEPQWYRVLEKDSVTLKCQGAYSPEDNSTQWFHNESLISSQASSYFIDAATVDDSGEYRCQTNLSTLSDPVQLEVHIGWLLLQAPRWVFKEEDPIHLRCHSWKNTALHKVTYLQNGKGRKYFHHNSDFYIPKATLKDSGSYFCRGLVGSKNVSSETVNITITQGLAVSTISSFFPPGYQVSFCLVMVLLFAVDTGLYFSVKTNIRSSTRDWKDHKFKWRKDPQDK

FcγRIIIa activation, reporter cell assay, relative AUC, single agent: < 5 % of the level induced by the positive control mixture
B1: IgG4-11B8-E345R-S440K (antibody)
heavy: EVQLVQSGGGLVHPGGSLRLSCTGSGFTFSYHAMHWVRQAPGKGLEWVSIIGTGGVTYYADSVKGRFTISRDNVKNSLYLQMNSLRAEDMAVYYCARDYYGAGSFYDGLYGMDVWGQGTTVTVSSASTKGPSVFPLAPCSRSTSESTAALGCLVKDYFPEPVTVSWNSGALTSGVHTFPAVLQSSGLYSLSSVVTVPSSSLGTKTYTCNVDHKPSNTKVDKRVESKYGPPCPSCPAPEFLGGPSVFLFPPKPKDTLMISRTPEVTCVVVDVSQEDPEVQFNWYVDGVEVHNAKTKPREEQFNSTYRVVSVLTVLHQDWLNGKEYKCKVSNKGLPSSIEKTISKAKGQPRRPQVYTLPPSQEEMTKNQVSLTCLVKGFYPSDIAVEWESNGQPENNYKTTPPVLDSDGSFFLYSRLTVDKSRWQEGNVFSCSVMHEALHNHYTQKKLSLSLGK
light: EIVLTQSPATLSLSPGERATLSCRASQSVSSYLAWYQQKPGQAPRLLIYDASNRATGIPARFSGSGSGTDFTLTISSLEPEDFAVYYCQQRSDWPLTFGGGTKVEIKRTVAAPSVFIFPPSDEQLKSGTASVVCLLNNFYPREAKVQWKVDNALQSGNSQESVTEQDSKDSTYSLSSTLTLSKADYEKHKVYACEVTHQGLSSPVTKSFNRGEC

FcγRIIIa activation, reporter cell assay, relative AUC, single agent: < 5 % of the level induced by the positive control mixture
B2: IgG4-11B8-E345R-S440K-N297A (antibody)
heavy: B1 heavy with N302A
light: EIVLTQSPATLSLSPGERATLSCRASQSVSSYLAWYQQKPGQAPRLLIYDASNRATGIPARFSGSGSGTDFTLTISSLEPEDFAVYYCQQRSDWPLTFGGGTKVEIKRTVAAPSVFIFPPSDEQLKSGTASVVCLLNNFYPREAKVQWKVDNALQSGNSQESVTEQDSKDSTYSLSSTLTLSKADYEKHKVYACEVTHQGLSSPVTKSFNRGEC

FcγRIIIa activation, reporter cell assay, relative AUC, single agent: < 5 % of the level induced by the positive control mixture
B3: IgG2-CAMPATH-1H-E345R-K439E (antibody)
heavy: QVQLQESGPGLVRPSQTLSLTCTVSGFTFTDFYMNWVRQPPGRGLEWIGFIRDKAKGYTTEYNPSVKGRVTMLVDTSKNQFSLRLSSVTAADTAVYYCAREGHTAAPFDYWGQGSLVTVSSASTKGPSVFPLAPCSRSTSESTAALGCLVKDYFPEPVTVSWNSGALTSGVHTFPAVLQSSGLYSLSSVVTVPSSNFGTQTYTCNVDHKPSNTKVDKTVERKCCVECPPCPAPPVAGPSVFLFPPKPKDTLMISRTPEVTCVVVDVSHEDPEVQFNWYVDGVEVHNAKTKPREEQFNSTFRVVSVLTVVHQDWLNGKEYKCKVSNKGLPAPIEKTISKTKGQPRRPQVYTLPPSREEMTKNQVSLTCLVKGFYPSDIAVEWESNGQPENNYKTTPPMLDSDGSFFLYSKLTVDKSRWQQGNVFSCSVMHEALHNHYTQESLSLSPGK
light: not shown

FcγRIIIa activation, reporter cell assay, relative AUC, single agent: < 5 % of the level induced by the positive control mixture
B4: IgG2-CAMPATH-1H-E345R-K439E-N297A (antibody)
heavy: B3 heavy with N297A
light: not shown

FcγRIIIa activation, reporter cell assay, relative AUC, single agent: < 5 % of the level induced by the positive control mixture
B5: IgG2-11B8-E345R-S440K (antibody)
heavy: EVQLVQSGGGLVHPGGSLRLSCTGSGFTFSYHAMHWVRQAPGKGLEWVSIIGTGGVTYYADSVKGRFTISRDNVKNSLYLQMNSLRAEDMAVYYCARDYYGAGSFYDGLYGMDVWGQGTTVTVSSASTKGPSVFPLAPCSRSTSESTAALGCLVKDYFPEPVTVSWNSGALTSGVHTFPAVLQSSGLYSLSSVVTVPSSNFGTQTYTCNVDHKPSNTKVDKTVERKCCVECPPCPAPPVAGPSVFLFPPKPKDTLMISRTPEVTCVVVDVSHEDPEVQFNWYVDGVEVHNAKTKPREEQFNSTFRVVSVLTVVHQDWLNGKEYKCKVSNKGLPAPIEKTISKTKGQPRRPQVYTLPPSREEMTKNQVSLTCLVKGFYPSDIAVEWESNGQPENNYKTTPPMLDSDGSFFLYSKLTVDKSRWQQGNVFSCSVMHEALHNHYTQKKLSLSPGK
light: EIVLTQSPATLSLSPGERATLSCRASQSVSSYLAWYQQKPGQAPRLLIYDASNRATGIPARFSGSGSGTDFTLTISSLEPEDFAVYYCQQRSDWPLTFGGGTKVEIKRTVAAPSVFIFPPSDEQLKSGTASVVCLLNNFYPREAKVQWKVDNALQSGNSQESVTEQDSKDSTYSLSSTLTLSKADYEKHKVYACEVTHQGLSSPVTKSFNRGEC

FcγRIIIa activation, reporter cell assay, relative AUC, single agent: < 5 % of the level induced by the positive control mixture
B6: IgG2-11B8-E345R-S440K-N297A (antibody)
heavy: B5 heavy with N301A
light: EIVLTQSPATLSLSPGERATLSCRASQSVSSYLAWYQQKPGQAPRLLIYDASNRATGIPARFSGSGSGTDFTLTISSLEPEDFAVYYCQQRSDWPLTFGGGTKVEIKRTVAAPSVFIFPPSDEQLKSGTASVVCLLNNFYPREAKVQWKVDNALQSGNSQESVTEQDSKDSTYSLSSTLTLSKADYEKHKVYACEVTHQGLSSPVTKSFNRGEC

FcγRIIIa activation, reporter cell assay, relative AUC, single agent: < 5 % of the level induced by the positive control mixture
B7: IgG4-CAMPATH-1H-E345R-K439E (antibody)
heavy: QVQLQESGPGLVRPSQTLSLTCTVSGFTFTDFYMNWVRQPPGRGLEWIGFIRDKAKGYTTEYNPSVKGRVTMLVDTSKNQFSLRLSSVTAADTAVYYCAREGHTAAPFDYWGQGSLVTVSSASTKGPSVFPLAPCSRSTSESTAALGCLVKDYFPEPVTVSWNSGALTSGVHTFPAVLQSSGLYSLSSVVTVPSSSLGTKTYTCNVDHKPSNTKVDKRVESKYGPPCPSCPAPEFLGGPSVFLFPPKPKDTLMISRTPEVTCVVVDVSQEDPEVQFNWYVDGVEVHNAKTKPREEQFNSTYRVVSVLTVLHQDWLNGKEYKCKVSNKGLPSSIEKTISKAKGQPRRPQVYTLPPSQEEMTKNQVSLTCLVKGFYPSDIAVEWESNGQPENNYKTTPPVLDSDGSFFLYSRLTVDKSRWQEGNVFSCSVMHEALHNHYTQESLSLSLGK
light: not shown

FcγRIIIa activation, reporter cell assay, relative AUC, single agent: < 5 % of the level induced by the positive control mixture
B8: IgG4-CAMPATH-1H-E345R-K439E-N297A (antibody)
heavy: B7 heavy with N298A
light: not shown
